Results taken from US20220332804A1 (CSL INNOVATION, published 2022).
Numbering of substitutions follows the chain as printed.

T1: human C2 R519A (human, UniProt P06681 21-752)
T1 sequence: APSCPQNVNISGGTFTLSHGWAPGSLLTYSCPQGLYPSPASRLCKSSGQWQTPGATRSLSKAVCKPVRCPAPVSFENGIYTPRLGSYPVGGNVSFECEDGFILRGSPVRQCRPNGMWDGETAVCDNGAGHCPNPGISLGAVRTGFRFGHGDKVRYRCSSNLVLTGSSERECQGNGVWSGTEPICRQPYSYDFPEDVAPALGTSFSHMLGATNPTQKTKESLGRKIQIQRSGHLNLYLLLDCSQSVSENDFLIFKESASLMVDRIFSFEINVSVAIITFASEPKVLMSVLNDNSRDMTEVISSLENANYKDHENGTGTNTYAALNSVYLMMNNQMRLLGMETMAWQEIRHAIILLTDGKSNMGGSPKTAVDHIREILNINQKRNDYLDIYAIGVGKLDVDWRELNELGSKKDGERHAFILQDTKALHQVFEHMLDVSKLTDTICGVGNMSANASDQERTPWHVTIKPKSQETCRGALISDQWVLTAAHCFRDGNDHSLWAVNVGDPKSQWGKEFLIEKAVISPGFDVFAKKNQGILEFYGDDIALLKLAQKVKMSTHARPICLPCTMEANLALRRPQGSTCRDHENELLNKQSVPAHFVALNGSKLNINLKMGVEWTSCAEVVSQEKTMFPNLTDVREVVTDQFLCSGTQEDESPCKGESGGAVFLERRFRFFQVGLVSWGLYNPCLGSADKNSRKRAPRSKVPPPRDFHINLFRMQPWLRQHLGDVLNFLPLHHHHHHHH

T2: human C2 D417A (human, UniProt P06681 21-752)
T2 sequence: T1 sequence with D397A, A499R

T3: human C2 S473A (human, UniProt P06681 21-752)
T3 sequence: T1 sequence with S453A, A499R

T4: human C2 Y702A (human, UniProt P06681 21-752)
T4 sequence: T1 sequence with A499R, Y682A

B1: RF16-242 (antibody, human IgG4 S228P, lambda, V domains shown)
VH: EVQLLQSGAEVKKPGESLKISCKGSGYSFTSYWIGWVRQMPGKGLEWMGIIYPGDSDTRYSPSFQGQVTISADKSISTAYLQWSSLKASDTAMYYCARRGHYGDYFDYWGQGTLVTVSS
VL: SYELTQPPSVSVSPGQTARITCSGDALPKKYAYWYHQKSGQAPVLVIYEDRRRPSEIPERFSGSSSGTMATLTITGAQVEDEGVYFCYSRDRAGNQRVFGGGTQLTVLG
notes: pH-dependent anti-C2 antibody from a phage display library
B2: RF16-226 (antibody, human IgG4 S228P, lambda)
heavy: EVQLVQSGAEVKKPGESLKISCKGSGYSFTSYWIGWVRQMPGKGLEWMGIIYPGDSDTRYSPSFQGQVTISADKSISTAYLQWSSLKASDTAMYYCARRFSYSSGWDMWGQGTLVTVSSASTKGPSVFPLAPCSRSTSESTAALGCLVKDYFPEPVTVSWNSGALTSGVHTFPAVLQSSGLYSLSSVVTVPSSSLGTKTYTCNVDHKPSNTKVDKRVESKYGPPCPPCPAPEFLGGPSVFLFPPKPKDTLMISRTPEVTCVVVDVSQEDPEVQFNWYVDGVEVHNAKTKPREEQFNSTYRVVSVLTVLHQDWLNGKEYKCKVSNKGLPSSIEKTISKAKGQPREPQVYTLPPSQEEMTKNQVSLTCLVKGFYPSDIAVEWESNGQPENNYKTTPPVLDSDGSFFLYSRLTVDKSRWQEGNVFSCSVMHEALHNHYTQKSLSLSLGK
light: SYELTQPPSVSVSPGQTARITCSGDALTSKYVAWYQQKSGLAPLLVIYEDTRRPSGIPAKFSGSSSGSVATLTISGAHGDDEADYYCYSTDASGHQRVFGGGTKLTVLSQPKAAPSVTLFPPSSEELQANKATLVCLISDFYPGAVTVAWKADGSPVKAGVETTKPSKQSNNKYAASSYLSLTPEQWKSHRSYSCQVTHEGSTVEKTVAPTECS
notes: pH-dependent anti-C2 antibody from a phage display library; also called WT

Legend:
human C2 R519A = target: T1, human C2 R519A; assay: SPR, antibody captured, C2 as analyte;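 further: biacore at 37 °C, anti-C2 mAbs held by immobilised goat anti-human IgG, C2 alanine or serine mutants injected, double-referenced sensorgrams fitted to a 1:1 kinetic or steady-state model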
human C2 D417A = target: T2, human C2 D417A; assay: SPR, antibody captured, C2 as analyte;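 further: biacore at 37 °C, anti-C2 mAbs held by immobilised goat anti-human IgG, C2 alanine or serine mutants injected, double-referenced sensorgrams fitted to a 1:1 kinetic or steady-state model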
human C2 S473A = target: T3, human C2 S473A; assay: SPR, KD relative to WT C2;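 further: biacore SPR at 37 °C, anti-C2 mAbs captured via immobilised goat anti-human IgG, C2 alanine or serine surface mutants as analytes, 1:1 model fitted, double-referenced sensograms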
human C2 Y702A = target: T4, human C2 Y702A; assay: SPR, KD relative to WT C2;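 further: biacore SPR at 37 °C, anti-C2 mAbs captured via immobilised goat anti-human IgG, C2 alanine or serine surface mutants as analytes, 1:1 model fitted, double-referenced sensograms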

| Binder | Kd (human C2 R519A) [µM] | Kd (human C2 D417A) [µM] | Fold diff (human C2 S473A) [fold] | Fold diff (human C2 Y702A) [fold] |
| --- | --- | --- | --- | --- |
| B1 | 0.0076 | 0.023 | – | – |
| B2 | – | – | 1 | 11 |
